# Measurements as given in patent US20130156692A1 (INDI MOLECULAR, published 2013).
# Bridges are numbered along the chain shown (N, C = ends). Primed or numbered codes have the meaning given here. Where no end group is shown, it is not given here. [ ]: non-standard residue; d: D form. Tz4″ = 1,4-disubstituted 1,2,3-triazole linker between anchor and secondary ligand; Lys(N3) = [N-]=[N+]=NCCCC[C@H](N)C(=O)O
# B1: Biligand 2 (X-…-Tz4-Ifrew) (designed binder)
# peptide: VEPNCDIHVMWEWECFERL[Tz4″][dL][dF][dR][dE][dW]
# modifications: disulfide 5-15; numbers in words are those of the source; also: N-terminal group is biotin-PEG3 or acetyl, not fixed
# B2: anchor ligand X-VEPNCDIHVMWEWECFERL-Az4 (peptide)
# peptide: VEPNCDIHVMWEWECFERL[Lys(N3)]
# modifications: disulfide 5-15; also: N-terminal X is biotin-PEG3 or acetyl, not settled
# notes: Phage display-derived peptide; also called Biotin-PEG-anchor ligand-Az4
# What was measured:
# [1] = biological target: T1, human VEGF165A (#ab56620; Abcam) (human, UniProt P15692-4 27-191, biotinylated (EZ-Link Sulfo-NHS-LC-Biotinylation kit) in the competitive ELISAs of Examples 8, 9 and 16; unlabelled in the direct ELISA and the pull-down); test: direct ELISA, VEGF165 coated, biotinylated capture agent
# T1 construct: Isoform VEGF165 of VEGF-A; also called rhVEGF165; biotinylated VEGF165
# [2] = biological target: T1, human VEGF165A (#ab56620; Abcam); test: direct ELISA: VEGF165 coated on the plate, biotinylated binder titrated, streptavidin poly-HRP, fluorescence normalised to saturation
# [3] = biological target: T1, human VEGF165A (#ab56620; Abcam); test: direct ELISA: VEGF165A immobilized on NUNC MaxiSorp plate, biotinylated PCC or bevacizumab (mAb or Fab) titrated, normalized to binding at saturation
# [4] = biological target: T1, human VEGF165A (#ab56620; Abcam); test: competitive ELISA, inhibition of biotinylated VEGF165 binding to VEGFR2-Fc; competition ELISA: blocking of biotinylated VEGF165 binding to VEGFR2-Fc; Biligand 2 tested up to 50 µM
# [5] = biological target: T1, human VEGF165A (#ab56620; Abcam); test: direct ELISA: VEGF165A immobilized on NUNC MaxiSorp plate, biotinylated peptide titrated, normalized to binding at saturation
# [6] = biological target: T1, human VEGF165A (#ab56620; Abcam); test: competitive ELISA, inhibition of biotinylated VEGF165 binding to VEGFR2-Fc; competition ELISA: blocking of biotinylated VEGF165 binding to VEGFR2-Fc; anchor tested up to 50 µM
# T1 sequence (P15692 other isoform, or with tags, fused parts or gaps limits assumed): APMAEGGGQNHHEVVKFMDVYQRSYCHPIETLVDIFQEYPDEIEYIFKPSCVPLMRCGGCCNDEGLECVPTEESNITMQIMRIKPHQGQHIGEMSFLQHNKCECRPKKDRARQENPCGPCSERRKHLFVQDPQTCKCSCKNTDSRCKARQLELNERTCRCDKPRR
binder,measurement,setting,value
B1,fold improvement in affinity relative to the anchor ligand,[1],5 fold
same,EC50 (read off the curve),[2],50 nM
same,EC50 (read off the curve),[3],40 nM
same,IC50,[4],> 50000 nM
B2,EC50 (read off the curve),[5],~300 nM
same,EC50 (read off the curve),[2],~100 nM
same,EC50 (read off the curve),[3],~100 nM
same,IC50,[6],> 50000 nM
